Source: publication PMC8813914, “The IGFBP3/TMEM219 pathway regulates beta cell homeostasis” (Nature Communications, 2022)

Biological target: T1, recombinant human IGFBP3 (insulin-like growth factor binding protein 3) (human, UniProt P17936 28-291)
T1 construct: as far as I recall the product is the mature protein without the signal peptide (about Gly28-Lys291); also called rh-IGFBP3; source: bought: R&D Systems, 8874-B3; expressed in S9-baculovirus, purity >95%
Assay: SPR; Biacore 8 K
Details: both partners purified

T1 sequence (P17936 28-291): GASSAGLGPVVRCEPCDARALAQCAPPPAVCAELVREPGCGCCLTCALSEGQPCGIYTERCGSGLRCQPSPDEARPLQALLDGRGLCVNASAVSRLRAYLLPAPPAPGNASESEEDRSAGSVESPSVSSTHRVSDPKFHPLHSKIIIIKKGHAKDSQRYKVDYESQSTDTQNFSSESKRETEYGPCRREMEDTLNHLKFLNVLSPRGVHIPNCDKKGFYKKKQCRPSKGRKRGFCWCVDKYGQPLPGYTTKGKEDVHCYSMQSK

Kd: 1.01 µM
B1: ecto-TMEM219 (recombinant protein based on the TMEM219 extracellular domain) (domain or fragment)
chain: THRTGLRSPDIPQDWVSFLRSFGQLTLCPRNGTVTGKWRGSHVVGLLTTLNFGDGPDRNKTRTFQATVLGSQMGLKGSSAGQLVLITARVTTERTAGTCLYFSAVPGILPSSQPPISCSEEGAGNATLSPRMGEECVSVWSHEGLVLTKLLTSEELALCGSR
notes: TMEM219 extracellular domain, 162 amino acids as printed, molecular weight 18 kDa; Buffer 10 mM HEPES, 0.05% SDS, pH 7.5; also called newly generated recombinant protein based on TMEM219 extracellular portion; source: E. coli (vector pET30a), by Genscript, from inclusion bodies, one-step purification through Nickel column, purity >90%
